The Kd is a measure of binding affinity in units of concentration. A low value points to higher affinity.

Experimental findings from PMC8465892, “CDR1 Composition Can Affect Nanobody Recombinant Expression Yields” (Biomolecules, 2021) are described below.

First the molecules themselves.
B1: A10 mutKG (VHH)
VHH: EVQLQASGGGFVQPGGSLRLSCAASGAGTSNISNMGWFRQAPGKEREFVSAISRAESRPLYYADSVKGRFTISRDNSKNTVYLQMNSLRAEDTATYYCAYMPLVRHKAYWGQGTQVTVSS
notes: A10 wt with a glycine inserted after A29 in CDR1 (G29a); also called G29a; source: gene synthetized by Twist Bioscience, pET-derived vectors, produced as previously reported [17]
B2: A10 mutKG.1 (VHH)
VHH: EVQLQESGGGLVQPGGSLRLSCAASGAGTSNISNMGWFRQAPGKEREFVAAISRAESRPLYYADSVKGRFTISRDNSKNTVYLQMNSLKPEDTATYYCAYMPLVRHKAYWGQGTQVTVSS
notes: A10 mutKG (G29a) with five framework mutations printed as Q8E, F13L, S51A, R90K, A91P; source: gene synthetized by Doulix, pET-derived vectors, produced as previously reported [17]
B3: A10 mutG0 (VHH)
VHH: EVQLQASGGGFVQPGGSLRLSCAASGATSGNISNMGWFRQAPGKEREFVSAISRAESRPLYYADSVKGRFTISRDNSKNTVYLQMNSLRAEDTATYYCAYMPLVRHKAYWGQGTQVTVSS
notes: A10 wt with a glycine inserted after S31 in CDR1 (G31a); also called G31a; source: gene synthetized by Twist Bioscience, pET-derived vectors, produced as previously reported [17]
B4: A10 wt (VHH)
VHH: EVQLQASGGGFVQPGGSLRLSCAASGATSNISNMGWFRQAPGKEREFVSAISRAESRPLYYADSVKGRFTISRDNSKNTVYLQMNSLRAEDTATYYCAYMPLVRHKAYWGQGTQVTVSS
notes: anti-Her2 nanobody isolated by panning a synthetic library; also called anti-Her2 ectodomain nanobody A10; source: pET-derived vectors, produced as previously reported [17]

The target in the experiment is T1, Her2 ectodomain-Fc (UniProt P04626 23-652).
T1 construct: Her2 ectodomain
The experiment can be described thus: SPR; Biacore T200, 25 °C; Her2 ectodomain-Fc immobilized by amine-coupling on a CM5 chip at 1180 RU; nanobodies injected at 30 µL/min in 20 mM Hepes, 150 mM NaCl, 3 mM EDTA, 0.005% Tween 20, pH 7.4; eight concentrations between 250 and 3.5 nM; 1:1 Langmuir model. As to conditions: both partners purified.
For B1, the Kd was 34.7 nM.
Under B2 stands 9.9 nM; under B3, 23.5 nM.
As to B4, binding was characterised by a dissociation constant (Kd) of 4.9 nM.
